The results in this text go back to PMC4006906 (PLoS Pathogens, 2014).

In the test the target is H5VN04 trimeric HA (recombinant hemagglutinin) (Influenza A virus A/Vietnam/1203/2004 …, strain). The experiment in a line: SPR. The note with it: both partners purified.

B1: CR6261 scFv (wild type) (scFv, V domains shown)
VH: EVQLVESGAEVKKPGSSVKVSCKASGGPFRSYAISWVRQAPGQGPEWMGGIIPIFGTTKYAPKFQGRVTITADDFAGTVYMELSSLRSEDTAMYYCAKHMGYQVRETMDVWGKGTTVTVSS
VL: QSVLTQPPSVSAAPGQKVTISCSGSSSNIGNDYVSWYQQLPGTAPKLLIYDNNKRPSGIPDRFSGSKSGTSATLGITGLQTGDEANYYCATWDRRPTAYVVFGGGTKLTVL
Take B1: the binding result is “binds”.
